Drawing on article doi:10.1101/780452, “Development of c-type lectin oriented surfaces for high avidity glycoconjugates: towards mimicking multivalent interactions on the cell surface” (bioRxiv, 2019), this text covers Kd for one molecule.

This assay deals with T1, BSA-Man (glycoprotein bearing 12 glycosylated sites) (bovine (from the name BSA), UniProt P02769 25-607, 12 glycosylated sites (mannose glycans, up to 12 glycans displayed)).
T1 construct: BSA (serum albumin) carrying mannose glycans; A neoglycoprotein; also called Man-BSA
T1 sequence (P02769 25-607): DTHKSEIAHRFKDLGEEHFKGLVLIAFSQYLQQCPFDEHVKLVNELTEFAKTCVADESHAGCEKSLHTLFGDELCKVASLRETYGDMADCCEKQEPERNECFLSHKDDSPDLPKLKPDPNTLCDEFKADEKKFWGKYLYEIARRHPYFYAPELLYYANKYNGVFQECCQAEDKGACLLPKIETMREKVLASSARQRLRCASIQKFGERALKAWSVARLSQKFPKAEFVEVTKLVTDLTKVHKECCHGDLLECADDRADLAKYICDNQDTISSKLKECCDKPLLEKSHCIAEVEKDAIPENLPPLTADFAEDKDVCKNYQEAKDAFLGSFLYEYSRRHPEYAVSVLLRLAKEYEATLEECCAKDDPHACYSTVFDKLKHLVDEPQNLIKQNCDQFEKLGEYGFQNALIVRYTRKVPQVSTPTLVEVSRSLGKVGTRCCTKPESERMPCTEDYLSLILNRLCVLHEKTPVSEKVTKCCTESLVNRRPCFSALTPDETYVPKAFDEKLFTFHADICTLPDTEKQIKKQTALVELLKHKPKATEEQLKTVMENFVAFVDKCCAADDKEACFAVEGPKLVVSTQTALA
Put plainly: SPR; BSA-Man titrated over a DC-SIGN S-ECD oriented surface (StrepTactin-functionalised CM3 chip, Biacore T200); 25 mM Tris pH 8, 150 mM NaCl, 4 mM CaCl2, 0.05% P20; steady state affinity model; apparent KD for the surface. The settings on record: both partners purified. For orientation: Surface plasmon resonance follows binding to a sensor surface in real time, without labels.

B1: DC-SIGN S-ECD (DC-SIGN extracellular domain tagged at its N-terminus with a StreptagII) (domain or fragment, UniProt Q9NNX6 66-404, looked up)
chain: SISQEQSRQDAIYQNLTQLKAAVGELSEKSKLQEIYQELTQLKAAVGELPEKSKLQEIYQELTRLKAAVGELPEKSKLQEIYQELTWLKAAVGELPEKSKMQEIYQELTRLKAAVGELPEKSKQQEIYQELTRLKAAVGELPEKSKQQEIYQELTRLKAAVGELPEKSKQQEIYQELTQLKAAVERLCHPCPWEWTFFQGNCYFMSNSQRNWHDSITACKEVGAQLVVIKSAEEQNFLQLQSSRSNRFTWMGLSDLNQEGTWQWVDGSPLLPSFKQYWNRGEPNNVGEEDCAEFSGNGWNDDKCNLAKFWICKKSAASCSRDEEQFLSPAPATPNPPPA
notes: DC-SIGN (Dendritic Cell specific ICAM-3 Grabbing Non-integrin), extracellular domain, amino acids 66-404; A factor Xa cleavage site lies between the N-terminal StreptagII and the ECD; On the chip the protein was captured by StrepTactin and then covalently fixed with EDC/NHS; source: E. coli Rosetta (DE3), inclusion bodies, purified (StrepTactin column, Mannan-agarose, Superose-12); not shown: …
For B1, the Kd came out at 5 nM.
